Here are results for one molecule from EP1214598B1.

No end group written: not given here.

In the experiment the target is PHF43 (tau fragment generated by GluC digestion of K19, 43 residues) (human). The experiment can be described thus: disulfide dimerization via Cys322, after reverse phase HPLC.

As for NLKHQPGGGKVQIVYKPVDLSKVTSKCGSLGNIHHKPGGGQVE (also: dimer via Cys322-Cys322 disulfide (without DTT)) [PHF43 (tau fragment generated by GluC digestion of K19, 43 residues)], the dimer fraction is 100%.
